{"source": "patent US20140105889A1", "about": "(published 2014)", "binders": {"B1": {"name": "IL6R-PD081/IL6R-L (antibody, human IgG1)", "heavy": "QVQLQESGPGLVKPSETLSLTCAVSGHSISHDHAWSWVRQPPGEGLEWIGFISYSGITNYNPSLQGRVTISRDNSKNTLYLQMNSLRAEDTAVYYCARSLARTTAMDYWGEGTLVTVSSASTKGPSVFPLAPSSKSTSGGTAALGCLVKDYFPEPVTVSWNSGALTSGVHTFPAVLQSSGLYSLSSVVTVPSSSLGTQTYICNVNHKPSNTKVDKKVEPKSCDKTHTCPPCPAPELLGEDSVFLFPPKPKDTLYISRTPEVTCVVVDVSHEDPEVKFNWYVDGVEVHNAKTKPREEQYNSTYRVVSVLTVLHQDWLNGKEYKCKVSNKALPAPIEKTISKAKGQPREPQVYTLPPSRDELTKNQVSLTCLVKGFYPSDIAVEWESNGQPENNYKTTPPVLDSDGSFFLYSKLTVDKSRWQQGNVFSCSVMHEALHYHYTQKSLSLSP", "light": "DIQMTQSPSSLSASVGDRVTITCRASQDISSYLNWYQQKPGKAPKLLIYYTSRLHSGVPSRFSGSGSGTDFTFTISSLQPEDIATYYCQQGNTLPYTFGQGTKVEIK", "notes": "PD variant: P238D/G237E introduced into IL6R-F11 (EU numbering); copies: 2 + 2"}, "B2": {"name": "IL6R-BP145/IL6R-L (antibody, human IgG1)", "heavy": "B1 heavy with L236Y, E239D, Y254M, Y436N, K441E", "light": "B1 light", "notes": "copies: 2 + 2"}, "B3": {"name": "IL6R-PD097/IL6R-L (antibody, human IgG1)", "heavy": "B1 heavy with E239G, S241D", "light": "B1 light", "notes": "PD variant: P238D/S239D introduced into IL6R-F11 (EU numbering); copies: 2 + 2"}, "B4": {"name": "IL6R-PD095/IL6R-L (antibody, human IgG1)", "heavy": "B1 heavy with E239Y", "light": "B1 light", "notes": "PD variant: P238D/G237Y introduced into IL6R-F11 (EU numbering); copies: 2 + 2"}, "B5": {"name": "IL6R-BP130/IL6R-L (antibody, human IgG1)", "heavy": "B1 heavy with E235D, E239G, Y254M, V325M, A332K, Y436N, K441E", "light": "B1 light", "notes": "copies: 2 + 2"}, "B6": {"name": "IL6R-BP088/IL6R-L (antibody, human IgG1)", "heavy": "B1 heavy with E239D, Y254M, K328A, A332K, Y436N, K441E", "light": "B1 light", "notes": "copies: 2 + 2"}, "B7": {"name": "IL6R-PD094/IL6R-L (antibody, human IgG1)", "heavy": "B1 heavy with E239W", "light": "B1 light", "notes": "PD variant: P238D/G237W introduced into IL6R-F11 (EU numbering); copies: 2 + 2"}, "B8": {"name": "IL6R-G1d/IL6R-L (antibody, human IgG1)", "heavy": "not shown", "light": "B1 light", "notes": "Anti-human IL-6 receptor IgG1 with the G1d constant region (C-terminal Gly and Lys removed); template used for producing IL6R-B3; also called IgG1; copies: 2 + 2"}, "B9": {"name": "IL6R-PD086/IL6R-L (antibody, human IgG1)", "heavy": "B1 heavy with E239L", "light": "B1 light", "notes": "PD variant: P238D/G237L introduced into IL6R-F11 (EU numbering); copies: 2 + 2"}, "B10": {"name": "IL6R-PD082/IL6R-L (antibody, human IgG1)", "heavy": "B1 heavy with E239F", "light": "B1 light", "notes": "PD variant: P238D/G237F introduced into IL6R-F11 (EU numbering); copies: 2 + 2"}, "B11": {"name": "IL6R-PD087/IL6R-L (antibody, human IgG1)", "heavy": "B1 heavy with E239M", "light": "B1 light", "notes": "PD variant: P238D/G237M introduced into IL6R-F11 (EU numbering); copies: 2 + 2"}, "B12": {"name": "IL6R-BP086/IL6R-L (antibody, human IgG1)", "heavy": "B1 heavy with E239G, Y254M, K328A, A332K, Y436N, K441E", "light": "B1 light", "notes": "copies: 2 + 2"}}, "key": {"human FcγRIIb [1]": {"biological_target": "T1, human FcγRIIb (human, UniProt P31994 43-217)", "T1 construct": "also called FcγIIB; FcγRIIb extracellular region", "T1 sequence": "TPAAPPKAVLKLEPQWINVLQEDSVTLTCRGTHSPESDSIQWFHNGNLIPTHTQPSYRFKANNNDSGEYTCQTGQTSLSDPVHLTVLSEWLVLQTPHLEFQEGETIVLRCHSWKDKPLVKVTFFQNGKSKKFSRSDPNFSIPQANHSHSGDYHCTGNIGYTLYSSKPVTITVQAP", "test": "SPR (Biacore), antibody captured on chip, FcγR as analyte; binding amount divided by that of IL6R-F652/IL6R-L, times 100"}, "human FcγRIIa type R": {"biological_target": "T2, human FcγRIIa type R (human, UniProt P12318 36-217)", "T2 construct": "also called Fcγ RIIaR; FcγRIIa(R)", "T2 chain": "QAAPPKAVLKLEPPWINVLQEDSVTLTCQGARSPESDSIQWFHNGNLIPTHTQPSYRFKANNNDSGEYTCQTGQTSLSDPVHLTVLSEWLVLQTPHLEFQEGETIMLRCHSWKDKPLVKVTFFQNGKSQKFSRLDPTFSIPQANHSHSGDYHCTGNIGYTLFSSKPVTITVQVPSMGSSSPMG", "test": "SPR (Biacore), antibody captured on chip, FcγR as analyte; binding amount divided by that of IL6R-F652/IL6R-L, times 100"}, "human FcγRIIb [2]": {"biological_target": "T3, human FcγRIIb (human, UniProt P31994 43-217, limits assumed)", "T3 construct": "also called FcγIIB; hFcgRIIb", "T3 sequence": "T1 sequence", "test": "ratio of this variant's SPR KD for FcγRIIaR to its KD for FcγRIIb", "source_text": "(§1) Furthermore, KD(IIaR)/KD(IIb) and KD(IIaH)/KD(IIb) in the table respectively represent the value obtained by dividing the KD value of each variant for FcγRIIaR by the KD value of each variant for FcγRIIb, and the value obtained by dividing the KD value of each variant for FcγRIIaH by the KD value of each variant for FcγRIIb."}, "human FcγRIIb [3]": {"biological_target": "T3, human FcγRIIb", "test": "ratio of this variant's SPR KD for FcγRIIaH to its KD for FcγRIIb", "source_text": "as §1"}}, "note": "Where a chain is given by its changes, count along the chain named. In names and notes the source's numbering stands.", "data": [{"binder": "B1", "values": [{"measurement": "relative binding activity for FcγRIIb", "setting": "human FcγRIIb [1]", "result": "101 % of the binding amount of IL6R-F652/IL6R-L"}, {"measurement": "relative binding activity for FcγRIIaR", "setting": "human FcγRIIa type R", "result": "117 % of the binding amount of IL6R-F652/IL6R-L"}]}, {"binder": "B2", "values": [{"measurement": "KD (IIaR)/KD (IIb)", "setting": "human FcγRIIb [2]", "result": 9.9}, {"measurement": "KD (IIaH)/KD (IIb)", "setting": "human FcγRIIb [3]", "result": 49.9}]}, {"binder": "B3", "values": [{"measurement": "relative binding activity for FcγRIIb", "setting": "human FcγRIIb [1]", "result": "139 % of the binding amount of IL6R-F652/IL6R-L"}, {"measurement": "relative binding activity for FcγRIIaR", "setting": "human FcγRIIa type R", "result": "844 % of the binding amount of IL6R-F652/IL6R-L"}]}, {"binder": "B4", "values": [{"measurement": "relative binding activity for FcγRIIb", "setting": "human FcγRIIb [1]", "result": "124 % of the binding amount of IL6R-F652/IL6R-L"}, {"measurement": "relative binding activity for FcγRIIaR", "setting": "human FcγRIIa type R", "result": "543 % of the binding amount of IL6R-F652/IL6R-L"}]}, {"binder": "B5", "values": [{"measurement": "KD (IIaR)/KD (IIb)", "setting": "human FcγRIIb [2]", "result": 17.5}, {"measurement": "KD (IIaH)/KD (IIb)", "setting": "human FcγRIIb [3]", "result": 55.5}]}, {"binder": "B6", "values": [{"measurement": "KD (IIaR)/KD (IIb)", "setting": "human FcγRIIb [2]", "result": 13.3}, {"measurement": "KD (IIaH)/KD (IIb)", "setting": "human FcγRIIb [3]", "result": 106}]}, {"binder": "B7", "values": [{"measurement": "relative binding activity for FcγRIIb", "setting": "human FcγRIIb [1]", "result": "122 % of the binding amount of IL6R-F652/IL6R-L"}, {"measurement": "relative binding activity for FcγRIIaR", "setting": "human FcγRIIa type R", "result": "593 % of the binding amount of IL6R-F652/IL6R-L"}]}, {"binder": "B8", "values": [{"measurement": "KD (IIaR)/KD (IIb)", "setting": "human FcγRIIb [2]", "result": 0.4}, {"measurement": "KD (IIaH)/KD (IIb)", "setting": "human FcγRIIb [3]", "result": 0.3}]}, {"binder": "B9", "values": [{"measurement": "relative binding activity for FcγRIIb", "setting": "human FcγRIIb [1]", "result": "112 % of the binding amount of IL6R-F652/IL6R-L"}, {"measurement": "relative binding activity for FcγRIIaR", "setting": "human FcγRIIa type R", "result": "268 % of the binding amount of IL6R-F652/IL6R-L"}]}, {"binder": "B10", "values": [{"measurement": "relative binding activity for FcγRIIb", "setting": "human FcγRIIb [1]", "result": "108 % of the binding amount of IL6R-F652/IL6R-L"}, {"measurement": "relative binding activity for FcγRIIaR", "setting": "human FcγRIIa type R", "result": "380 % of the binding amount of IL6R-F652/IL6R-L"}]}, {"binder": "B11", "values": [{"measurement": "relative binding activity for FcγRIIb", "setting": "human FcγRIIb [1]", "result": "109 % of the binding amount of IL6R-F652/IL6R-L"}, {"measurement": "relative binding activity for FcγRIIaR", "setting": "human FcγRIIa type R", "result": "196 % of the binding amount of IL6R-F652/IL6R-L"}]}, {"binder": "B12", "values": [{"measurement": "KD (IIaR)/KD (IIb)", "setting": "human FcγRIIb [2]", "result": 17.1}, {"measurement": "KD (IIaH)/KD (IIb)", "setting": "human FcγRIIb [3]", "result": 89.9}]}]}
